According to the nanobody polyreactivity screen of Harvey et al. (2022):

Assay: yeast display, Sf9 membrane polyspecificity reagent, FACS + sequencing; frameworks hold sequencing errors
In short: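 Nanobodies from a synthetic yeast display library (Saccharomyces cerevisiae BJ5465), induced 36–48 hours with galactose, were stained 1 hour at 4 °C with 10% biotinylated, detergent-solubilized Sf9 membrane reagent, enriched on streptavidin microbeads, then FACS-sorted. Anti-HA (expression) and streptavidin (reagent binding) fluorescence set low and high (top ~1%) gates. Polyreactivity labels come from the gate of origin. Genes were colony-PCR amplified, MiSeq 2 × 250 sequenced and filtered by CDR length.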

| Sequence | polyreactivity (PSR sort gate) |
| --- | --- |
| QVQLLESGGGLVQAGGSLRISCAASGSTLRTNAMGWYRQAPGKERELVAAISTRGSSTYYADSVKGRFTISRDNSKNTVYLQMNSLKPEDTAVYYCAKDGVWYYSGTGMDYWGQGTQVTVSS | low polyreactivity |
| QVQLVESGGGLVQAGGSLRLSCAASGFTFSYYAMGWYRQAPGKERELVAAITSGGRTYYADSVKGRFTISRDNAKNTVYLQMNSLKPEDTAVYYCATSSQRWFYSGNYWGQGTQVTVSS | high polyreactivity |
| QVQLVESGGGLVQAGGSLRLSCAASGSIFRYYAMGWYRQAPGKEREFVAAINTNDAGTYYADSVKGRFTISRDNAKNTVYLQMNSLKPEDTAVYYCAADTGYPFWYDYWGQGTQVTVSS | high polyreactivity |
| QVQLVESGGGLVQAGGSLRLSCAASGFIFPNNAMGWYRQAPGKERELVARISYGGGDTHYADSVKGRFTISRDTAKNTVYLQMNSLKPEDTAVYYCAVKDGQDDYWGQGTQVTVSS | low polyreactivity |
| QGQLVESGGGLVQAGGSLRLSCAASGRTLVIKVMGWYRKAPGKERELVAAISFRSGNTYYADSVKGRFTISRDNAKITVYLQMNSLKPEDTAVYDCAAYTYRTSTTSSYYNWGQGTQVTVSS | high polyreactivity |
| QVQLVESGGCLVQAGGSLRLSCAASGFTFDIYAMGWYRQAPGKERELVATISRSGGTTYYADSVKGRFTISRDNAKNTVYLQMNCLKPEDTAVYYCAAAAYYYRYRYRMYYWGQGTQVTVSS | high polyreactivity |
| QVQLVESGGGLVQAGGSLRLSCAASGLIFYSNAMGWYRQAPGKEREFVAAITRRGGSTYYADSVKGRFTISRDNAKNTVYLQMNSLKPEDTAVYYCNARYYHKRSTRVIFQYDYWGQGTQVTVSS | high polyreactivity |
| QVQLEESGGGLVQAGGSLRLSCAASGRIFIAYTMGWYRQAPGKERELVAAITWNGGSTYYADSVKGRFTISRDNAMNTVYLQMNSLKPEDTAVYYWVLVSRPGPKPAREMDYWGQGTQVTVSS | low polyreactivity |
| QVQLVESCGGLVQAGGSLRLSCAASGSTFAVNVMGWYRQAPGKERELDATITYRDGRTYYADSVKGRFTISRDNAKNTVYVQMNSLKPEVTALYYCAADWYTTYDYWGQGTQVTVSS | low polyreactivity |
| QVQLVESGGGLVQAGGSLRLSCAASGRIFGRNAMGWYIQAPGTERELVAAISKSGTSTYYADSVKGRFTISRDNAKNTVYLQMNSLKPEDTAVYYCAAALPGYGDYYYWGQGTQVTVSS | high polyreactivity |
| QVQLVESGGGLVQAGGSLRLSCAASGIIFADYAMGWSRQAPGKERELVAAISSGDSTYYADSVKGRFTMSLDNAKNTVYLQMNSLKPEDTAVYYSAARLFRNKYRIAKMNYWGQGTQVTVSS | high polyreactivity |
| QVQLVESGGGLVQAGGSLRLSCAATGITFYPNDMGWYRQAPGKERELVAAITTNDGDTYYADSVKGRFTISRDNAKNTVYLQMNSLKPEDTAVYYCAADSGSTSEYEYWGQGTQVTVSS | low polyreactivity |
| QVQLVESGAGLVQAGGSLRLSCAANTKGSYRQAPGKETELVAAINTGSSTYYADSVKGRFTISRDNAKNTVYLQMNSLKPEDTSVYYCNASYPQYLEYRTRQYNYWVQGTQVTVSS | low polyreactivity |
| QVQLVESVGGLLQAGGSLRLSCDASGSIFADYAMGWYRQAPGKERELVAVITSSGGSTNYADSVKGRFTISRDNAKNTVYLQMNSLKPEDTAVYYCNRRPYPSYDYWGQGTQVTVSS | low polyreactivity |
| QVEIVESGGGLVQAGGSLRLSCAASGRTFSYYAMGWYRQAPGKERELVAAISTSGGSTYYAVSVKGRFTISRDYAKITVYLQMNSLKPEDTAVYVCAASPYLRFLYGGFGYWGQGTQVTVSS | high polyreactivity |
| QVQLVESGGGLVQAGGSLRLSCAASGSIFYHYAMGWYIQAPGKERELVAAISWRGASTYYADSVKGRFTISRDNAKNTVYLQMNSLKPEDTAVYYCARLSSSHPLYRDDYWGQGTQVTVSS | high polyreactivity |

| Sequence | polyreactivity (PSR sort gate) |
| --- | --- |
| QVQLVESGGGLVQAGGSLRLSCAASGFNFYGYAMGWYRQAPGKERQLVATISRGGSTTYYADSVKGRFTISRDNAKNTVYLQMNSLKPEDTAVYYCAAYNVIYTRRMYYWGQGTQVTVSS | high polyreactivity |
| QVQLVESGGGLVQAGGSLRLSCDASGSTFDYYAMGWYRQAPGKERELVAGIDSAGSTNYADSVKGRFTISRDNAKNTVYLQMNSLKTGRYRGLYCNVGKTITTYAFPTFDYCGQGTQVTVSS | low polyreactivity |
| QVQRVESGGGLVQAGGSLRLSCAASGRIFGLNAMGWYRQAPGKERELVAAIDRSGASTYYADSVKGRFTISRDNAKNTVYLQMNSLKPEDSAVYYCAARIRTSDRRYYLGQGTQVTVSS | high polyreactivity |
| QVQLVESGGGLVQAGGSLRISCAASGRIFNINAMGWYRPAPGKERELVAAITWRSGSTYYADSVKGRFTISRDNAKNTVYLHMNSLKPEDTAVYYCAADFSQTRRPIRFYYWGQGSQVTVSS | high polyreactivity |
| QVQLVESGGGLVQAGGSLRLSCAASGSTFSTYAMGWYRQAPGKERELVAAITAGGGSTYYADSVKGRFTISRDNAKNTVYLQMNSLKPEDTAVYYCAARSYYRFGGGYWGQGTQVTVSS | high polyreactivity |
| QVQLVESGGGLVQAGGSLRLSCAASGRIFWRNALGWYRQAPGKERELVAAITYSGGSTYYADSVKGRFTISRDNAKNTVYVQMNSLNPEDTAVYYCNTVEGWRYYGQSLYAYYYWGQGTQVTVSS | high polyreactivity |
| QVQLVESGGGLVQAGGSLRLSCAASGRIFVGNAMGWYRQAPGKEWALVAANSGSGDSTYYADSVKGRFTISRDNAKNTVYLQMISLKPEDTAVYYCNVDYDFVIYYYWYYPGYDYWGQGTQVTVSS | low polyreactivity |
| QVQLVESRGGLVQAGGSLRLSCAASGYTFDWYTMGWYRQAPGKERELVAAISASGVRTYYADSVKGRFTISRDNAKNTVYLQMNSLKPEDTAVYYCYRVYSTSRITQYEFDYWGLGTQVTVSS | low polyreactivity |
| QVQLVESGGGLVQAGGSLRLSCAASGFIFRLYAMGWYRQAPGKERELVAAISTGGGRTYYADSVKGRFTFSGDNAKNTVYLQMNSLKPEDTADYDCNTLVEPHYDYWGQGTQVTVSS | high polyreactivity |
| QVQLVESGGGLVQAGGSLRLSCAASGFTIRWYTMGWYRQAPGKERELVAAISRGGSTNYADSVKGRFTISRDNAKNTVYLQMNSLKPEDTAVYYCNAVRGGRYGLDYWGQGTQVTVSS | high polyreactivity |
| QVQLVESGGGLVQAGGSLRLSCAASGNIFYVYVMGWYRQAPGKERELVAAISRGGGSTYYADSVKGRFTISRDNAKNTVSLQMNSLKPEDTAVYYCAARRGYPSGYEYWGQGTQVTVSS | high polyreactivity |
| QVQLVESGGGLVQAGGSLRLSCAASGRILRTYAMGWYRQPPGKETELVAAITWSGASTYYADSVKGRFTISRDNAMNTVYLQMNSLKPEDTAVYYCNALSPGYRIYDYWGQGTQETVSS | high polyreactivity |
| QVQLVESGGGLVQAGGSLRLSCAASGIIFKTYTMGWYRTAPGKERELVAAITFSGGSTYYADSVKGRFTISRDNAKNTVYLQMNSLKPEDTAVYYCADTHRFWWYSDDYWGQGTQVTVSS | high polyreactivity |
| QVHLVESGGGLVLAGGSLRLSCAASGRIFSFYAMGWYRQAPGKERELVAAISSGGNTYYADSLKGRFTISRDNAKNTVYLQMNSLKPEDTAVYYCATGYRNLSSRYGYWGQGTQVSVSS | high polyreactivity |
| QVQLVESGGGLVQAGGSLRLSCAASGSTFPGYAMGWYRQAPGKERELVAAISKRGGSTRYADSVKGRFTISRDNAKNTVYLQMNSLKPEDTAVYYCNNRSQISHYRRHDYWGQGTQVTVSS | high polyreactivity |
| QVQHVESGGGLVQAGGSLRLSCAASGRTFRGNAMGWDRQAPGKERELVAAIRYRGGSTYYADSVKGRFTISRDNAKNTVYLQMNSLKPEDTAVYYCARRYTVHTQHYDYWGQGTQVTVSS | high polyreactivity |
